{"source": "patent US10745461B2", "about": "“Pulsed introduction of low-dose RANKL as a therapy for diet-induced atherosclerosis” (Saint Louis University, priority 2015, dated 2020)", "molecules": {"B1": {"name": "receptor activator of NF-κB ligand (protein, UniProt O35235 139-316, looked up)", "Tumor necrosis factor ligand …": "FSGAPAMMEGSWLDVAQRGKPEAQPFAHLTINAASIPSGSHKVTLSSWYHDRGWAKISNMTLSNGKLRVNQDGFYYLYANICFRHHETSGSVPTDYLQLMVYVVKTSIKIPSSHNLMKGGSTKNWSGNSEFHFYSINVGGFFKLRAGEEISIQVSNPSLLDPDQDATYFGAFKVQDID", "modifications": "GST tag"}}, "test_system": "FoxP3+ CD8 T-cells (TcREG)", "test": "In vivo TcREG induction: GFP negative CD8 T-cells adoptively transferred into OT-I Rag-/- mice", "experimental": "FIGS. 1A, 1B and 1C indicate that TcREG are induced by activated osteoclasis. […] In the absence of RANK L treatment, very low level of conversion was observed after three days. […] ZA was administered intravenously one week prior to adoptive transfer of CD8 T-cells.\nIt was first determined the dose of RANKL that produced the maximal number FoxP3^+ CD8 T-cells in the bone marrow. RANKL was administered into FoxP3-GFP reporter mice at various doses for two consecutive days. Fifty hours after first dose, the mice were sacrificed and the numbers of CD8 T-cells that were GFP positive cells in the bone marrow were measured. […] The increased levels of FoxP3 in the bone marrow could either be due to recruitment of TcREG to the bone marrow or induction of FoxP3 expression in cells that were FoxP3 negative. To test for induction FACS sorted the GFP negative population of CD8 (Thy 1.2+ that were CD44 negative or naïve) from the spleens and bone marrow to high purity (FIG. 1C first panel) and adoptively transferred them into congenically marked (Thy 1.1) OT-I Rag^−/− mice. […] In the absence of RANKL administration low levels […] CD8 T-cell were detected (FIGS. 1B and C second panel), but RANKL administration (0.125 mg/kg) yielded ˜1% […] Thy 1.2 T-cells (FIGS. 1B and 1C third panel). […]"}
{"molecule": "B1", "values": [{"measurement": "TcREG induction by RANKL", "setting": "0.125 mg/kg, 50 hrs after RANKL treatment, 3 days after T-cell transfer", "result": "robustly induced TcREG"}, {"measurement": "GFP+ Thy 1.2 T-cells after RANKL administration", "setting": "RANKL 0.125 mg/kg, OT-I Rag-/- recipients", "result": "~1", "unit": "%"}]}
